In article PMC6258048 (Biochemical and biophysical research communications, 2014):

T1: Tcf4 (Transcription factor 4) DNA binding B-HLH domain
T1 chain: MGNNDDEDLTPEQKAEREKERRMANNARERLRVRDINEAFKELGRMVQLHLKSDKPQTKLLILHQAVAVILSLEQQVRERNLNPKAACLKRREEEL

B1: Tcf3 (Transcription factor 3) DNA binding B-HLH domain (domain or fragment)
chain: MGHMVHRPWIQDEVLSLEEKDLRDRERRMANNARERVRVRDINEAFRELGRMCQLHLKSDKAQTKLLILQQAVQVILGLEQQVRERNLNPKAACGGRTRIVSAHNSENEL
B2: Ascl1 (Achaete-scute homolog 1) DNA binding B-HLH domain (domain or fragment)
chain: MASGFGYSLPQQQPAAVARRNERERNRVKLVNLGFATLREHVPNGAANKKMSKVETLRSAVEYIRALQQLLDEHDAVSAAFQAGVLSPEL

Tests used:
CD thermal denaturation = molecular target: the molecule itself; test: CD thermal denaturation
[1] = molecular target: T1, Tcf4 (Transcription factor 4) DNA …; test: native gel or EMSA
[2] = molecular target: Tcf12 (Transcription factor 12) DNA binding B-HLH domain; test: native gel or EMSA
[3] = molecular target: B1; test: native gel or EMSA

binding result [1]	binding result [2]	binding result [3]	Binder	binding result (CD thermal denaturation)
			B1	binds
binds	binds	binds	B2	
